Where no end group is shown, it is not given here. [ ]: non-standard residue; d: D form. code J = not defined here
Experiments:
[1] = molecular target: C*14:02 (Homo sapiens, UniProt P10321, A176E/A330V/A35S/A97T/C350S/D114A/D33S/L171W/L180R/L218V/M285V/M309V/M331V/P208H/Q277E/Q291P/R121W/R243W/S123F/S297R/S48A/T329A/T363A/V319A); settings: IEDB value, purified MHC/direct/fluorescence, read-out: dissociation constant KD; cited from earlier work
[2] = molecular target: B*18:01 (Homo sapiens, UniProt P01889, A329T/A93T/A95T/C349S/D201E/D54G/D98Y/E176V/E187T/E204Q/E69T/K202T/Q94N/R155S/R180L/S121R/V306I/Y140S/Y195H/Y33H/Y91S); settings: IEDB value, purified MHC/competitive/radioactivity, read-out: half maximal inhibitory concentration (IC50); cited from earlier work
[3] = molecular target: T1, C*02:02 (Homo sapiens, UniProt P10321, A176E/A235T/A330V/A97T/C350S/D114A/D33Y/G40S/L171W/L180W/L218V/M285V/M309V/M331V/N104K/P208H/Q277E/Q291P/R45H/S101N/S123Y/S297R/S48A/T187E/T329A/T363A/V319A); assay: ELISA of small scale MHCI refold (anti-HLA W6/32 capture, anti-B2M detection); format: binding; settings: for S/N ELISA value: C*02:02, 1.0 μg/mL MHCI, no peptide control as background; for normalized ELISA OD: C*02:02, 1 μg/mL MHCI, normalized to no peptide control
Protocol: Recombinant HLA alleles and B2M were over-expressed in E. coli, purified from inclusion bodies, and stored under denaturing conditions (6M Guanidine HCL, 25 mM Tris pH 8) in −80° C. as described above. In a 200 μL reaction, the peptide (0.01 mM, per well), oxidized and reduced glutathione (0.5 mM and 4.0 mM, respectively), recombinant HLA alleles (0.03 mg/mL) and B2M (0.01 mg/mL) were all combined within a 96-well plate. Refold screens were performed with five different peptides for each HLA of interest as described above (Table 3). and the MHCI complex was incubated at 4° C. for 3-5 days to allow refolding. Refolded samples were analyzed by ELISA, and the highest performing peptide was selected for further analysis. All data was analyzed relative to the negative control refold, which was performed in the absence of peptide (labeled NP). HLA-A*02:01 refolded with the CMV pp65 viral epitope was used as a positive control. […]
(§1) A 384-well Nunc Maxisorp plate (ThermoFisher Scientific, Waltham, MA) was coated with 25 μL/well of mouse IgG2a anti-HLA ABC clone W6/32 (Novus Biological, Littleton, Co.) at 8 μg/mL in coating buffer (0.05 sodium carbonate pH 9.6). After overnight incubation at 4° C., the plate was washed 3 times with wash buffer (PBS, 0.5% Tween 20). The plate was then blocked with 50 μL/well of Block buffer (PBS, 0.5% BSA, 10 ppm Proclin) and incubated at room temperature (RT) with agitation for 1 hour. […] The plate was washed six times and 25 IL of biotinylated mouse IgG1 anti-human B2M (BioLegend, San Diego, CA) at 100 ng/mL in assay diluent was added to each well. After a 1 hour incubation at RT and six washes, 25 μL/well of Streptavidin-Horseradish Peroxidase (GE, Marlborough, MA) was added to the plate and incubated for 30 min at RT. The color reaction was developed with TMB peroxidase substrate (Moss, Pasadena, MD) at RT for 15 min, and the reaction was stopped with 1M phosphoric acid. The absorbance was measured at a wavelength of […] with a reference at 620 nm. Refolded MHC monomers without peptide or irrelevant peptide were used as the negative controls for each allele to normalize the signal.
(§2) Recombinant HLA alleles and B2M were over-expressed in E. coli, purified from inclusion bodies, and stored under denaturing conditions (6M Guanidine HCl, 25 mM Tris pH 8) in −80° C. as described above. In a 200 μL reaction, the peptide (0.01 mM, per well), oxidized and reduced glutathione (0.5 mM and 4.0 mM, respectively), recombinant HLA alleles (0.03 mg/mL) and B2M (0.01 mg/mL) were all combined in a 96-well plate. Refolds were performed with five different peptides for each HLA of interest as described above (Table 3), and the MHCI complex was incubated at 4° C. for 3-5 days to allow refolding. MHCI complex refolds were also performed in the absence of a peptide and used as the negative control to calculate the signal to noise (S/N) for the experimental peptides. Given that there should have been minimal properly refolded complex in the absence of a peptide, these samples provided the overall background of the assay to calculate the S/N value. HLA-A*02:01 refolded with the CMV pp65 viral epitope was used as a positive control. Peptides yielding the highest signal to noise ratio (S/N) were selected for further analysis.
Two different ELISA assays were evaluated to optimize the sensitivity of the assay. In the first assay format, the refolded MHCI was captured with anti-B2M antibody and detected with pan ABC anti-HLA antibody (clone W6/32). In the second assay format, MHCI was captured with the pan ABC anti-HLA antibody (clone W6/32) and detected with the anti-B2M antibody. In both assays, a 384-well Nunc Maxisorp plate (Thermo Fisher Scientific, Waltham, MA) was coated with 25 μL/well of capture antibody, mouse IgG1 anti-human B2M (BioLegend, San Diego, CA) or mouse IgG2a anti-HLA ABC clone W6/32 (Novus Biological, Littleton, Co.), at 8 μg/mL in coating buffer (0.05 sodium carbonate pH 9.6). […]

[4] = molecular target: T2, B*35:03 (Homo sapiens, UniProt P01889, A329T/A93T/A95T/C349S/D201E/D98Y/E176V/E187L/E204Q/E69T/I218V/K202T/L119I/Q94N/R155S/R180L/S121R/S35A/S48A/T118I/V127L/V306I/V36M/Y140F/Y91F); settings: IEDB value, cellular MHC/mass spectrometry; cited from earlier work
[5] = molecular target: T1, C*02:02; settings: IEDB value, cellular MHC/mass spectrometry; cited from earlier work
[6] = molecular target: T2, B*35:03; assay: ELISA of small scale MHCI refold (anti-HLA W6/32 capture, anti-B2M detection); format: binding; design: inferred from enzymatic biotinylation; made in house; host or cells: Escherichia coli; settings: for S/N ELISA value: B*35:03, 1.0 μg/mL MHCI, no peptide control as background; for normalized ELISA OD (signal to background): B*35:03, 1 μg/mL MHCI, normalized to no peptide control
Protocol: Recombinant HLA alleles and B2M were over-expressed in E. coli, purified from inclusion bodies, and stored under denaturing conditions (6M Guanidine HCL, 25 mM Tris pH 8) in −80° C. as described above. In a 200 μL reaction, the peptide (0.01 mM, per well), oxidized and reduced glutathione (0.5 mM and 4.0 mM, respectively), recombinant HLA alleles (0.03 mg/mL) and B2M (0.01 mg/mL) were all combined within a 96-well plate. Refold screens were performed with five different peptides for each HLA of interest as described above (Table 3). and the MHCI complex was incubated at 4° C. for 3-5 days to allow refolding. Refolded samples were analyzed by ELISA, and the highest performing peptide was selected for further analysis. All data was analyzed relative to the negative control refold, which was performed in the absence of peptide (labeled NP). HLA-A*02:01 refolded with the CMV pp65 viral epitope was used as a positive control.
Formation of stable conditional MHCI complexes upon refolding with the redesigned peptides were identified by ELISA as described above. […] The original peptide (containing no UV amino acid substitution) was used as a positive control. All peptides used here were purchased from JPT (www.jpt.com) or ELIM Biopharm (www.elimbio.com).
as §1, §2
Two different ELISA assays were evaluated to optimize the sensitivity of the assay. In the first assay format, the refolded MHCI was captured with anti-B2M antibody and detected with pan ABC anti-HLA antibody (clone W6/32). In the second assay format, MHCI was captured with the pan ABC anti-HLA antibody (clone W6/32) and detected with the anti-B2M antibody. […]

[7] = molecular target: A*26:01 (Homo sapiens, UniProt P04439, A114D/A173T/A270S/D101N/D185E/E277Q/E87N/F33Y/G231S/I121R/I218V/K168Q/L180W/L300P/L318F/P208A/P217A/Q86R/Q94H/R138Q/S129P/T187R/T323A/T345S/V100A/V358M); settings: IEDB value, purified MHC/direct/fluorescence, read-out: dissociation constant KD (~EC50); cited from earlier work
[8] = molecular target: HLA-A*02:03 (Homo sapiens, UniProt P04439, A173T/D140Y/D185E/D98H/E277Q/G131W/G231S/I119V/I121R/I166T/I218V/L180W/L300P/L318F/N151K/N90K/P208A/P217A/Q86G/Q94H/R138H/R169H/T345S); assay: ELISA of small scale MHCI refold (anti-HLA W6/32 capture, anti-B2M detection); format: binding; design: inferred from enzymatic biotinylation; made in house; host or cells: Escherichia coli; settings: for S/N ELISA value: A*02:03, 1.0 μg/mL MHCI, no peptide control as background; for normalized ELISA OD (signal to background): A*02:03, 1 μg/mL MHCI, normalized to no peptide control
Protocol: Recombinant HLA alleles and B2M were over-expressed in E. coli, purified from inclusion bodies, and stored under denaturing conditions (6M Guanidine HCL, 25 mM Tris pH 8) in −80° C. as described above. In a 200 μL reaction, the peptide (0.01 mM, per well), oxidized and reduced glutathione (0.5 mM and 4.0 mM, respectively), recombinant HLA alleles (0.03 mg/mL) and B2M (0.01 mg/mL) were all combined within a 96-well plate. Refold screens were performed with five different peptides for each HLA of interest as described above (Table 3). and the MHCI complex was incubated at 4° C. for 3-5 days to allow refolding. […] All data was analyzed relative to the negative control refold, which was performed in the absence of peptide (labeled NP). HLA-A*02:01 refolded with the CMV pp65 viral epitope was used as a positive control.
A 384-well Nunc Maxisorp plate (ThermoFisher Scientific, Waltham, MA) was coated with 25 μL/well of mouse IgG2a anti-HLA ABC clone W6/32 (Novus Biological, Littleton, Co.) at 8 μg/mL in coating buffer (0.05 sodium carbonate pH 9.6). After overnight incubation at 4° C., the plate was washed 3 times with wash buffer (PBS, 0.5% Tween 20). The plate was then blocked with 50 μL/well of Block buffer (PBS, 0.5% BSA, 10 ppm Proclin) and incubated at room temperature (RT) with agitation for 1 hour. After washing the plate 3 times with wash buffer, 25 μL/well of the unpurified refolded MHC complex at 40 μg/mL with and without peptides in assay diluent (PBS, 0.5% BSA+0.05% Tween20+10 ppm Proclin) was added to the plate and incubated for 1 hour at RT. The plate was washed six times and 25 IL of biotinylated mouse IgG1 anti-human B2M (BioLegend, San Diego, CA) at 100 ng/mL in assay diluent was added to each well. After a 1 hour incubation at RT and six washes, 25 μL/well of Streptavidin-Horseradish Peroxidase (GE, Marlborough, MA) was added to the plate and incubated for 30 min at RT. The color reaction was developed with TMB peroxidase substrate (Moss, Pasadena, MD) at RT for 15 min, and the reaction was stopped with 1M phosphoric acid. The absorbance was measured at a wavelength of 405 nm with a reference at 620 nm. […]

FMYEGDTPL [Peptide C1402-04]
Kd [1]: 0.1 nM

DEFKPIVQY [Peptide B1801-02]
IC50 [2]: 3.9 nM

YYRYPTGESY [Peptide C1402-03]
Kd [1]: 0.1 nM

FAAEAQKJ (FAAEAQKX; not fully specified) [Peptide C0202-03-04]
S/N ELISA value [3]: very low S/N ELISA values | normalized ELISA OD [3]: very low normalized ELISA values

IPAEGRVAL [Peptide B3503-02]
ligand presentation [4]: Positive

APEEHPVLL [Peptide B3503-03]
ligand presentation [4]: Positive

DAVPFPISL [Peptide C0202-01]
ligand presentation [5]: Positive

TPAJYFHVL (TPA[code J]YFHVL; not fully specified; reading uncertain) [Peptide B3503-04-02]
S/N ELISA value [6]: highest S/N value | normalized ELISA OD (signal to background) [6]: highest normalized ELISA OD value

IAKSGTSEF (FAAEAQKL) [Peptide C0202-03]
S/N ELISA value [3]: highest S/N value | normalized ELISA OD [3]: highest normalized OD value | ligand presentation [5]: Positive

DTITNVTTM [Peptide A2601-05]
Kd [7]: 4 nM

FEFTSFFY [Peptide B1801-01]
IC50 [2]: 0.1 nM

FMYJDFHFI [Peptide A0203-02-02]
S/N ELISA value [8]: highest S/N value | normalized ELISA OD (signal to background) [8]: highest normalized ELISA OD value

FJYSDFHFI [Peptide A0203-02-01]
S/N ELISA value [8]: very low S/N ELISA values | normalized ELISA OD (signal to background) [8]: very low normalized ELISA values

KIRDLLPVM [Peptide C0202-04]
ligand presentation [5]: Positive

SYMSTFPLF [Peptide C0202-05]
ligand presentation [5]: Positive

ETTNWLWAF [Peptide A2601-02]
Kd [7]: 2 nM

TYLQSLASL [Peptide C1402-02]
Kd [1]: 0.1 nM

TJANYFHVL (TXANYFHVL; not fully specified) [Peptide B3503-04-01]
S/N ELISA value [6]: very low S/N ELISA values | normalized ELISA OD (signal to background) [6]: very low normalized ELISA values

FAAJAQKL (FAAXAQKL; not fully specified) [Peptide C0202-03-02]
S/N ELISA value [3]: 6 | normalized ELISA OD [3]: 6

DVVPMVTQM [Peptide A2601-03]
Kd [7]: 3 nM

YPYPYPHTAAFSKLIYL [Peptide B3503-05]
ligand presentation [4]: Positive

FAAEAJKL (FAAEA[code J]KL; not fully specified; reading uncertain) [Peptide C0202-03-03]
S/N ELISA value [3]: highest S/N value | S/N ELISA value ([3]; listed as C0202-02-03): 8 | normalized ELISA OD [3]: highest normalized ELISA OD value | normalized ELISA OD ([3]; listed as C0202-02-03): 8

SYMSTFPLF [Peptide C1402-01]
Kd [1]: 0.1 nM

TPANYFHVL [Peptide B3503-04]
S/N ELISA value [6]: highest OD value | normalized ELISA OD (signal to background) [6]: highest OD value | ligand presentation [4]: Positive

FAAEAQKL [Peptide C0202-02]
S/N ELISA value [3]: ~8 | normalized ELISA OD [3]: ~8 | ligand presentation [5]: Positive

FJAEAQKL (FXAEAQKL; not fully specified) [Peptide C0202-03-01]
S/N ELISA value [3]: very low S/N ELISA values | normalized ELISA OD [3]: very low normalized ELISA values

From patent US20230349903A1, “ASSAYS AND REAGENTS FOR CHARACTERIZATION OF MHCI PEPTIDE BINDING” (priority 2020, published 2023)
